Laboratory results: patent publication US20260167721A1 (ABLEXIS, published 2026)

Columns and labels:
[1] = target: T1, human CD3 (TCR/CD3 complex on the cell surface) (human, UniProt P07766 23-207; P04234 22-171; P09693 23-182); test: flow cytometry, Jurkat WT cells, 10 ug/mL
T1 construct: whole, on cells; Native CD3 on human Pan-T cells or Jurkat wild-type cells; also called CD3 on Pan-T cells; CD3 on Jurkat WT cells

[2] = target: T1, human CD3 (TCR/CD3 complex on the cell …); test: flow cytometry, Pan-T cells, 1 ug/mL
[3] = target: T1, human CD3 (TCR/CD3 complex on the cell …); test: flow cytometry, Jurkat WT gMFI over Jurkat KO gMFI, 10 ug/mL
[4] = target: T1, human CD3 (TCR/CD3 complex on the cell …); test: flow cytometry, Jurkat WT gMFI over Jurkat KO gMFI, 1 ug/mL
[5] = target: T1, human CD3 (TCR/CD3 complex on the cell …); test: flow cytometry, Pan-T cells, 10 ug/mL
[6] = target: T1, human CD3 (TCR/CD3 complex on the cell …); test: flow cytometry, Jurkat WT cells, 1 ug/mL

T1 sequence (P07766 23-207, chain 1 of 3): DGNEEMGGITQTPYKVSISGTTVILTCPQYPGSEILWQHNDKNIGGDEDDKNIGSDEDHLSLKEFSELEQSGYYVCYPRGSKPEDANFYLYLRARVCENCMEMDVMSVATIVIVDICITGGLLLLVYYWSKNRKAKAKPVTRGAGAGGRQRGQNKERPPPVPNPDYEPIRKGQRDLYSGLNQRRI
T1 sequence (P04234 22-171, chain 2 of 3): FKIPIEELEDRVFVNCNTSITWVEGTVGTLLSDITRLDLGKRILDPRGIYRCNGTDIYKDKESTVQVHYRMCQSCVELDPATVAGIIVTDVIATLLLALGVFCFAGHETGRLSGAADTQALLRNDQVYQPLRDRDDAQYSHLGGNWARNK
T1 sequence (P09693 23-182, chain 3 of 3): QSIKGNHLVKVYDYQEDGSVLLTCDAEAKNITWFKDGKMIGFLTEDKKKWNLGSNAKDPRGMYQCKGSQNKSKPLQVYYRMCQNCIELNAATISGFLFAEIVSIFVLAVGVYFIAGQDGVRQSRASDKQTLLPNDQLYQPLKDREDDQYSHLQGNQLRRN

Binder | gMFI [1] | % Positive [2] | gMFI [2] | Jurkat WT/KO (Fold) [3] | Jurkat WT/KO (Fold) [4] | % Positive [5] | gMFI [5] | gMFI [6]
CD3 × CD33-BspAb76 (bispecific antibody) chain 1: EVQLVESGGGLVKPGGSLRLSCAASGFTFSSYSMNWVRQAPGKCLEWVSSISRRSGYIYYADSVKGRFTLSRDNAKKSLYLQMNSLRAEDTAVYYCARDLNWAFDYWGQGTLVTVSSGGGGSGGGGSGGGGSGGGGSNFMLTQPHSVSESPGKTVTISCTRSSGSIASNYVQWYQQRPGSSPTTVIYEDNHRPSGVPDRFSGSIDSSSNSASLTIAGLKTEDEADYYCQSSDSSNVVFGCGTKLTVLDKTHTCPPCPAPEFEGGPSVFLFPPKPKDTLMISRTPEVTCVVVDVSHEDPEVKFNWYVDGVEVHNAKTKPREEQYNSTYRVVSVLTVLHQDWLNGKEYKCKVSNKALPASIEKTISKAKGQPREPQVYTLPPCREEMTKNQVSLWCLVKGFYPSDIAVEWESNGQPENNYKTTPPVLDSDGSFFLYSKLTVDKSRWQQGNVFSCSVMHEALHNHYTQKSLSLSPGK chain 2: EVQLVQSGAEVKKPGSSVKVSCKASGYTITDSNIHWVRQAPGQSLEWIGYIYPYNGGTDYNQKFKNRATLTVDNPTNTAYMELSSLRSEDTAFYYCVNGNPWLAYWGQGTLVTVSSASTKGPSVFPLAPSSKSTSGGTAALGCLVKDYFPEPVTVSWNSGALTSGVHTFPAVLQSSGLYSLSSVVTVPSSSLGTQTYICNVNHKPSNTKVDKRVEPKSCDKTHTCPPCPAPEFEGGPSVFLFPPKPKDTLMISRTPEVTCVVVDVSHEDPEVKFNWYVDGVEVHNAKTKPREEQYNSTYRVVSVLTVLHQDWLNGKEYKCKVSNKALPASIEKTISKAKGQPREPQVCTLPPSREEMTKNQVSLSCAVKGFYPSDIAVEWESNGQPENNYKTTPPVLDSDGSFFLVSKLTVDKSRWQQGNVFSCSVMHEALHNRFTQKSLSLSPGK chain 3: DIQLTQSPSTLSASVGDRVTITCRASESLDNYGIRFLTWFQQKPGKAPKLLMYAASNQGSGVPSRFSGSGSGTEFTLTISSLQPDDFATYYCQQTKEVPWSFGQGTKVEVKRTVAAPSVFIFPPSDEQLKSGTASVVCLLNNFYPREAKVQWKVDNALQSGNSQESVTEQDSKDSTYSLSSTLTLSKADYEKHKVYACEVTHQGLSSPVTKSFNRGEC | 9780 gMFI | 50.2% | 6790 gMFI | 4.4 fold | 1.5 fold | 99.5% | 43400 gMFI | 3180 gMFI
CD3 × CD33-BspAb77 (bispecific antibody) chain 1: EVQLVESGGGLVKPGGSLRLSCAASGFTFSTYIMNWVRQAPGKCLEWVSSISSSRSYIYYADSVKGRFTISRDNAKNSLYLQMNSLRAEDTAVYYCAREDRYRLFFDYWGQGTLVTVSSGGGGSGGGGSGGGGSGGGGSNFMLTQPHSVSESPGKTVTISCTRSSGSIASNYVQWYQQRPGSSPTTVIYEDNQRPSGVPDRFSGSIDSSSNSASLTISGLKTEDEADYYCQSYDSSNRVFGCGTKLTVLDKTHTCPPCPAPEFEGGPSVFLFPPKPKDTLMISRTPEVTCVVVDVSHEDPEVKFNWYVDGVEVHNAKTKPREEQYNSTYRVVSVLTVLHQDWLNGKEYKCKVSNKALPASIEKTISKAKGQPREPQVYTLPPCREEMTKNQVSLWCLVKGFYPSDIAVEWESNGQPENNYKTTPPVLDSDGSFFLYSKLTVDKSRWQQGNVFSCSVMHEALHNHYTQKSLSLSPGK chain 2: EVQLVQSGAEVKKPGSSVKVSCKASGYTITDSNIHWVRQAPGQSLEWIGYIYPYNGGTDYNQKFKNRATLTVDNPTNTAYMELSSLRSEDTAFYYCVNGNPWLAYWGQGTLVTVSSASTKGPSVFPLAPSSKSTSGGTAALGCLVKDYFPEPVTVSWNSGALTSGVHTFPAVLQSSGLYSLSSVVTVPSSSLGTQTYICNVNHKPSNTKVDKRVEPKSCDKTHTCPPCPAPEFEGGPSVFLFPPKPKDTLMISRTPEVTCVVVDVSHEDPEVKFNWYVDGVEVHNAKTKPREEQYNSTYRVVSVLTVLHQDWLNGKEYKCKVSNKALPASIEKTISKAKGQPREPQVCTLPPSREEMTKNQVSLSCAVKGFYPSDIAVEWESNGQPENNYKTTPPVLDSDGSFFLVSKLTVDKSRWQQGNVFSCSVMHEALHNRFTQKSLSLSPGK chain 3: DIQLTQSPSTLSASVGDRVTITCRASESLDNYGIRFLTWFQQKPGKAPKLLMYAASNQGSGVPSRFSGSGSGTEFTLTISSLQPDDFATYYCQQTKEVPWSFGQGTKVEVKRTVAAPSVFIFPPSDEQLKSGTASVVCLLNNFYPREAKVQWKVDNALQSGNSQESVTEQDSKDSTYSLSSTLTLSKADYEKHKVYACEVTHQGLSSPVTKSFNRGEC | 22100 gMFI | 92.5% | 37800 gMFI | 8.6 fold | 3.6 fold | 99.8% | 188000 gMFI | 8960 gMFI
